Common to all, as to experiment: Steady state kinetic parameters of fluorogenic substrates with purified AKR1C isozymes
Common to all, as to type: biochemical, human
Common to all, as to settings: other: isozyme 1C2, potassium phosphate buffer pH 6, NADPH, fluorimetric

Substrate in data set [1]: O=C(c1ccccc1)c1cc(=O)oc2c3c4c(cc12)CCCN4CCC3
An excerpt: (§1) AKR1C2 and AKR1C3 Selective Probes: Probes (5a-5i) were examined as substrates for the four purified human HSD isozymes (AKR1C1-AKR1C4) under standard assay conditions [catalytic quantities of enzyme, an excess of cofactor (NADPH)]. The initial reaction rates were used to derive standard kinetic parameters (kcat and Km, Materials and Methods).
(§2) Substrate tolerance of AKR1Cs: Isozyme Activity with 5a-5i: Activity of the second generation of fluorogenic substrates with the AKR1C isozymes was determined as follows. To a STARNA semi-micro fluorimeter cell (with 4 polished windows) was added 100 μL of 1 M potassium phosphate buffer (pH 6), 840 μL doubly deionized water, and 20 μL of 12.5 mM NADPH. After mixing the aqueous components thoroughly, 20 μL of acetonitrile was added as a cosolvent and mixed well. 20 μL of 2.5 mM second generation fluorogenic ketone in acetonitrile (5a-5i) was then added and mixed. 4 μL of undiluted AKR1C (provided generously by the Penning lab at concentrations of 2.5 mg/mL) were then added to the cuvette for a total of 10 μg purified enzyme in the 1 mL assay volume. Fluorescence arising from the respective alcohol reduction product was then monitored over the course of 5-10 minutes.
(§3) Binding constant and catalytic rates (Km and kcat) of the second generation of fluorogenic substrates was determined as follows. To a STARNA semi-micro fluorometer cell (with 4 polished windows) was added 100 μL of 1 M potassium phosphate buffer (pH 6), 840 μL doubly deionized water, and 20 AL of 12.5 mM NADPH. After mixing the aqueous components thoroughly, 20 μL of acetonitrile was added as a cosolvent and mixed well. 20 μL of the second generation fluorogenic ketone (5a-5i) was then added and mixed to achieve assay concentrations of 5Km to Km/5. To initiate the reduction, 2 or 4 μL of diluted AKR1C (1:2 to 1:100, depending on the kinetics of a particular isozyme's reduction of a substrate) was then added to the cuvette. Fluorescence arising from the respective alcohol reduction product was then monitored over the course of 3 minutes (Excitation and emission band pass slits both at 4 nm, lamp 700 V, λexc 410 nm, λem 510). The rate of product formation, expressed in units of nanomoles per minute, were calculated according to previously published procedures (Wierzchowski, J.; Dafeldecker, W. P.; Holmquist, B.; Vallee, B. L. Anal. Biochem. 1989, 178, 57-62):
(§4) initial rate=[nst×(Ft−F0)/(Fst)]/t (1)
(§5) where Ft and F0 represent the fluorescence at times t and 0 minutes, nst is the nanomoles of product in a known concentration of product, and Fst is the fluorescence resulting from nst of product. Kinetic parameters were approximated by GraFit (Erithacus Software, Surrey, UK) nonlinear regression analysis program to fit the untransformed data to a hyperbolic function as originally described (Wierzchowski, J.; Dafeldecker, W. P.; Holmquist, B.; Vallee, B. L. Anal. Biochem. 1989, 178, 57-62). Reported enzymatic kinetic parameters are the average of three independent determinations from three different preparations of substrate and enzyme.

Substrate in data set [2]: CC(=O)c1cc(=O)oc2cc(N(C)C)ccc12
Description: as §1, §2, §3, §4, §5

Substrate in data set [3]: CC(=O)c1cc(=O)oc2c3c4c(cc12)CCCN4CCC3
Description: as §1, §2, §3, §4, §5

Substrate in data set [4]: CC(=O)c1cc(=O)oc2c3c(ccc12)NCCC3
Description: as §1, §2, §3, §4, §5

Substrate in data set [5]: O=C1CCc2c1c1cc3c4c(c1oc2=O)CCCN4CCC3
Description: as §1, §2, §3, §4, §5

Substrate in data set [6]: CC(=O)c1cc(=O)oc2cc3c(cc12)CCCN3
Description: as §1, §2, §3, §4, §5

B1: AKR1C2 (Homo sapiens) (protein)
chain: MDSKYQCVKLNDGHFMPVLGFGTYAPAEVPKSKALEAVKLAIEAGFHHIDSAHVYNNEEQVGLAIRSKIADGSVKREDIFYTSKLWSNSHRPELVRPALERSLKNLQLDYVDLYLIHFPVSVKPGEEVIPKDENGKILFDTVDLCATWEAMEKCKDAGLAKSIGVSNFNHRLLEMILNKPGLKYKPVCNQVECHPYFNQRKLLDFCKSKDIVLVAYSALGSHREEPWVDPNSPVLLEDPVLCALAKKHKRTPALIALRYQLQRGVVVLAKSYNEQRIRQNVQVFEFQLTSEEMKAIDGLNRNVRYLTLDIFAGPPNYPFSDEY
notes: gift of the Penning lab (University of Pennsylvania School of Medicine)
For B1, the Km (in general, the concentration of substrate that gives half-maximal velocity) in data set [1] was 3 µM; in data set [2], 7.2 µM; in data set [3], 7.3 µM; in data set [4], 4.8 µM; in data set [5], 4.5 µM; in data set [6], 43.3 ± 4.4 4.3 ± 0.2 μM. Further, the kcat in data set [5] is 1.6 0.40 7.2 no activity. Further, the kcat/Km in data set [5] was 0.39 0.08 56 min^−1 μM^−1.

The record behind these values is patent publication US20100048604A1, “Ligands for Aldoketoreductases” (priority 2004, published 2010).
